Publication PMC12256112

How the values were obtained:
[1] = target: Rpn11, wild type, deubiquitinase subunit of the lid in the reconstituted 26S proteasome (S. cerevisiae) (UniProt P43588)
[2] = target: Rpn11 L132R, deubiquitinase subunit of the lid in the reconstituted receptor-deficient 26S proteasome (S. cerevisiae) (UniProt P43588)
[3] = target: Rpn11 A89F, deubiquitinase subunit of the lid in the reconstituted receptor-deficient 26S proteasome (S. cerevisiae) (UniProt P43588)
[4] = target: Rpn11, wild type, deubiquitinase subunit of the lid in the reconstituted 26S proteasome (S. cerevisiae) (UniProt P43588); remark: listed apart in the source
[5] = target: isolated Rpn11/Rpn8 heterodimer with Rpn11 A89I (S. cerevisiae) (UniProt P43588)
[6] = target: isolated Rpn11/Rpn8 heterodimer with Rpn11 A89F (S. cerevisiae) (UniProt P43588)
[7] = target: Rpn11, wild type, deubiquitinase subunit of the lid in the reconstituted 26S proteasome (S. cerevisiae) (UniProt P43588); remark: listed apart in the source
[8] = target: Rpt5, ATPase subunit of the base, in the reconstituted 26S proteasome (S. cerevisiae) (UniProt P33297)

mono-ubiquitinated GS substrate (titin I27^V15P with glycine-serine-rich initiation region, one ubiquitin K63R attached) (from UniProt P0CG63 1-76)
degradation rate of the mono-ubiquitinated GS substrate by the SspB-fused ARR-Pru-ΔUIM proteasome with wild-type Rpn11, against the non-ubiquitinated GS substrate (bulk degradation assay) [1]: 0.38 min⁻¹ | degradation rate of the mono-ubiquitinated GS substrate by the SspB-fused ARR-Pru-ΔUIM proteasome with Rpn11^L132R; no ubiquitin-mediated stimulation (bulk degradation assay) [2]: 0.25 min⁻¹

unanchored K48-linked tetraubiquitin chain (from UniProt P0CG63 1-76)
SspB-delivered substrate degradation by ARR-Pru-ΔUIM-A89F proteasomes without and with K48-Ub4 (bulk degradation assay) [3]: 1.2 fold | average tail-insertion time constant of the wild-type proteasome without and with unanchored K48-Ub4 (single-molecule FRET substrate-processing assay) [4]: 1.39 s

Ubiquitin-TAMRA
deubiquitinase activity of the isolated Rpn11/Rpn8 heterodimer (0.5 μM) on 100 μM Ubiquitin-TAMRA, against wild-type Rpn11 (fluorescence polarisation, 30°C) [5]: 10 fold | deubiquitinase activity of the isolated Rpn11/Rpn8 heterodimer (0.5 μM) on 100 μM Ubiquitin-TAMRA, against wild-type Rpn11 (fluorescence polarisation, 30°C) [6]: 1.3 fold

poly-ubiquitinated GS substrate (titin I27^V15P with glycine-serine-rich initiation region, long ubiquitin chains attached) (from UniProt P0CG63 1-76)
degradation rate of the GS substrate with long ubiquitin chains by SspB-fused ARR-Pru-ΔUIM proteasomes; 0.25 min^-1 for the non-ubiquitinated GS substrate (bulk degradation assay) [7]: 1 min⁻¹

B1: Rpn10 with the R23E, D31K and E68K mutations in its VWA domain, as subunit of the reconstituted 26S proteasome (receptor)
chain: MVLEATVLVIDNSEYSRNGDFPETRFEAQIKSVEFIFQAKRNSNPENTVGLISGAGANPRVLSTFTAKFGKILAGLHDTQIEGKLHMATALQIAQLTLKHRQNKVQHQRIVAFVCSPISDSRDELIRLAKTLKKNNVAVDIINFGEIEQNTELLDEFIAAVNNPQEETSHLLTVTPGPRLLYENIASSPIILEEGSSGMGAFGGSGGDSDANGTFMDFGVDPSMDPELAMALRLSMEEEQQRQERLRQQQQQQDQPEQSEQPEQHQDK
SspB-delivered substrate degradation by proteasomes with Rpn10^EKK against wild-type proteasomes (bulk degradation assay) [8]: 1.6 fold | s1-to-non-s1 transition rate of proteasomes with Rpn10^EKK against wild-type proteasomes (single-molecule FRET conformational dynamics assay) [8]: 40%
